Results taken from paper PMC6405930, “Conservation of the Amyloid Interactome Across Diverse Fibrillar Structures” (Scientific Reports, 2019).

B1: Ig α-1 chain C region: plasma/CSF protein bound to fibrils (protein, UniProt P01876 1-398, looked up)
Immunoglobulin heavy constant …: ASPTSPKVFPLSLCSTQPDGNVVIACLVQGFFPQEPLSVTWSESGQGVTARNFPPSQDASGDLYTTSSQLTLPATQCLAGKSVTCHVKHYTNPSQDVTVPCPVPSTPPTPSPSTPPTPSPSCCHPRLSLHRPALEDLLLGSEANLTCTLTGLRDASGVTFTWTPSSGKSAVQGPPERDLCGCYSVSSVLPGCAEPWNHGKTFTCTAAYPESKTPLTATLSKSGNTFRPEVHLLPPPSEELALNELVTLTCLARGFSPKDVLVRWLQGSQELPREKYLTWASRQEPSQGTTTFAVTSILRVAAEDWKKGDTFSCMVGHEALPLAFTQKTIDRLADWQMPPPYVVLDLPQETLEEETPGANLWPTTITFLTLFLLSLFYSTALTVTSVRGPSGNREGPQY
B2: Complement C1r subcomponent: plasma protein bound to fibrils (protein, UniProt P00736 18-705, looked up)
Complement C1r subcomponent: SIPIPQKLFGEVTSPLFPKPYPNNFETTTVITVPTGYRVKLVFQQFDLEPSEGCFYDYVKISADKKSLGRFCGQLGSPLGNPPGKKEFMSQGNKMLLTFHTDFSNEENGTIMFYKGFLAYYQAVDLDECASRSKSGEEDPQPQCQHLCHNYVGGYFCSCRPGYELQEDTHSCQAECSSELYTEASGYISSLEYPRSYPPDLRCNYSIRVERGLTLHLKFLEPFDIDDHQQVHCPYDQLQIYANGKNIGEFCGKQRPPDLDTSSNAVDLLFFTDESGDSRGWKLRYTTEIIKCPQPKTLDEFTIIQNLQPQYQFRDYFIATCKQGYQLIEGNQVLHSFTAVCQDDGTWHRAMPRCKIKDCGQPRNLPNGDFRYTTTMGVNTYKARIQYYCHEPYYKMQTRAGSRESEQGVYTCTAQGIWKNEQKGEKIPRCLPVCGKPVNPVEQRQRIIGGQKAKMGNFPWQVFTNIHGRGGGALLGDRWILTAAHTLYPKEHEAQSNASLDVFLGHTNVEELMKLGNHPIRRVSVHPDYRQDESYNFEGDIALLELENSVTLGPNLLPICLPDNDTFYDLGLMGYVSGFGVMEEKIAHDLRFVRLPVANPQACENWLRGKNRMDVFSQNMFCAGHPSLKQDACQGDSGGVFAVRDPNTDRWVATGIVSWGIGCSRGYGFYTKVLNYVDWIKKEMEEED
B3: Inter-α-trypsin inhibitor heavy chain H2: plasma protein bound to fibrils (protein, UniProt P19823 55-702, looked up)
Inter-alpha-trypsin inhibitor …: SLPGESEEMMEEVDQVTLYSYKVQSTITSRMATTMIQSKVVNNSPQPQNVVFDVQIPKGAFISNFSMTVDGKTFRSSIKEKTVGRALYAQARAKGKTAGLVRSSALDMENFRTEVNVLPGAKVQFELHYQEVKWRKLGSYEHRIYLQPGRLAKHLEVDVWVIEPQGLRFLHVPDTFEGHFDGVPVISKGQQKAHVSFKPTVAQQRICPNCRETAVDGELVVLYDVKREEKAGELEVFNGYFVHFFAPDNLDPIPKNILFVIDVSGSMWGVKMKQTVEAMKTILDDLRAEDHFSVIDFNQNIRTWRNDLISATKTQVADAKRYIEKIQPSGGTNINEALLRAIFILNEANNLGLLDPNSVSLIILVSDGDPTVGELKLSKIQKNVKENIQDNISLFSLGMGFDVDYDFLKRLSNENHGIAQRIYGNQDTSSQLKKFYNQVSTPLLRNVQFNYPHTSVTDVTQNNFHNYFGGSEIVVAGKFDPAKLDQIESVITATSANTQLVLETLAQMDDLQDFLSKDKHADPDFTRKLWAYLTINQLLAERSLAPTAAAKRRITRSILQMSLDHHIVTPLTSLVIENEAGDERMLADAPPQDPSCCSGALYYGSKVVPDSTPSWANPSPTPVISMLAQGSQVLESTPPPHVMRVEND

Experiments:
Ab1 fibrils [1] = system: T1, Ab1 fibrils; test: Fibril incubation with plasma, quantitative MS/MS of bound proteins; type: binding, human; conditions: 50:1 w/w plasma protein:fibril
T1 construct: Synthetic amyloid β peptide 1–40 was purchased from Caslo Aps (Lyngby, Denmark); purchased Caslo Aps (Lyngby, Denmark); host or cells: synthetic peptide
Description: (§1) Plasma and CSF solutions were centrifuged (40,000 g, 20 min) to remove any aggregates. The protein concentration was determined using 280 nm absorbance assuming 1 Abs = 1 mg/mL. Samples with fibril material (20 μg), plasma (500 μg) or CSF (40 μg) proteins were prepared in 200 μL PBS buffer with 5 mM EDTA. Control samples (without fibril material) were prepared similarly. All samples were incubated at room temperature for one hour under gentle agitation. Fibrils and fibril-bound proteins were pelleted by centrifugation at 17,000 g for 30 minutes. The supernatant (175 μL) was removed and the aggregate was re-suspended in 175 μL PBS and pelleted again before further preparation for gel analysis and spin-filter assisted digest for quantitative MS/MS.
(§2) The fibril-protein pellets were transferred to spin-filters (0.22 μm), washed twice in PBS (100 μL) and once in 1 M NaCl (100 μL). The fibrils and fibril-bound proteins were dissolved by one-hour incubation in 100 μL 6 M guanidinium chloride followed by elution from the spin-filter. The eluted proteins were loaded onto a 3 kDa MWCO filter unit for filter-assisted unfolding, reduction, alkylation, and trypsin digestion. In brief, samples were washed twice in 8 M urea, once in 8 M urea with 50 mM DTT, once in 8 M urea with 50 mM iodoaceteamide, and twice in 8 M Urea. The filter units were dried by centrifugation (14,000 g in 30 minutes) after every addition. Trypsin digestion was carried out with 0.25 μg sequencing grade trypsin from Sigma Aldrich in 50 mM ammonium bicarbonate overnight at 37 °C. The tryptic peptides were collected by centrifugation, acidified with TFA (0.1%) and micro-purified using POROS R2 column material (Applied Biosystems) packed in P200 pipette tips (Sarstedt).
(§3) LC-MS/MS analyses were performed on an EASY-nLC II system (Thermo Fisher Scientific) connected to a TripleTOF 5600+ mass spectrometer (Sciex) equipped with a NanoSpray III source (Sciex) and operated under Analyst TF 1.6.0 control.
(§4) The micro-purified tryptic peptides were dissolved in 0.1% formic acid, injected and trapped on an in-house packed trap column (2 cm × 100 μm I.D) with RP ReproSil-Pur C18-AQ 3 μm resin (Dr. Maisch GmbH). Peptides were eluted from the trap column and separated on a 15 cm analytical column (75 μm i.d.) packed in-house in a pulled emitter with RP ReproSil-Pur C18-AQ 3 μm resin (Dr. Maisch GmbH). Elution from the analytical column was performed with a linear gradient from 5% to 35% phase B (90% acetonitrile with 0.1% formic acid) over 20 min for protein identification and 50 min for quantitative analysis, respectively.
(§5) All samples were analysed three times, yielding nine MS/MS experiments for each fibril for both plasma and CSF. For the area-based extracted ion chromatogram (XIC) quantification, the acquisition method was set up as an information-dependent acquisition (IDA) experiment collecting up to 25 MS/MS spectra in each 1.6 sec cycle using an exclusion window of 6 sec.
(§6) XIC quantification was based on the average ion intensity of the three most abundant peptides for each protein. Only proteins quantified in at least four out of nine MS/MS experiments per fibril were included in the quantification. The total ion scores were visualized after grouping the proteins according to function (Figure S11).
(§7) For each MS/MS experiment, the ion intensities of the individual proteins were normalized to the total ion intensity of that MS/MS experiment to achieve a relative protein composition. The contribution of each protein was averaged over all nine MS/MS experiments (Tables 1 and 2).

Ab1 fibrils [2] = system: T1, Ab1 fibrils; test: Fibril incubation with CSF, quantitative MS/MS of bound proteins; type: binding, human; parameters: key to Identification status of CSF protein bound: Ab1: *: Identified, but not quantified; —: Not identified in any of the samples; conditions: symbol cells
C-36 fibrils [3] = target: T2, C-36 fibrils (Homo sapiens, UniProt P01009); test: as above; type: binding; conditions: 4:1 w/w CSF protein:fibril
T2 construct: the 36 residue C-terminal fragment of α1-antitrypsin (C-36)
T2 sequence (P01009 383-418 limits assumed): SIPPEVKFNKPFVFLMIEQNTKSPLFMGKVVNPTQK

glucagon fibrils [4] = target: T3, glucagon fibrils (Homo sapiens, UniProt P01275); test: as above; type: binding; conditions: 4:1 w/w CSF protein:fibril
T3 construct: fibrils of the peptide hormone glucagon
T3 sequence (P01275 53-81 limits assumed): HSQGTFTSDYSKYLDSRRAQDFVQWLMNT

Ab2 fibrils [5] = system: T4, Ab2 fibrils; test: Fibril incubation with plasma, quantitative MS/MS of bound proteins; type: binding, human; conditions: 50:1 w/w plasma protein:fibril
T4 construct: Two structurally distinct fibrils of the Aβ(1–40) peptide associated with AD
Description: as §1, with “Samples with fibril material (20 μg), plasma (500 μg) or CSF (40 μg) proteins were prepared in 200 μL PBS buffer with 5 mM EDTA.” left out
as §2, §3, §4, §5, §6, §7

FAS4-AD aggregates [6] = system: T5, FAS4-AD aggregates; test: Fibril incubation with CSF, quantitative MS/MS of bound proteins; type: binding, human; parameters: key to Identification status of CSF protein bound: FAS4-AD: *: Identified, but not quantified; —: Not identified in any of the samples; conditions: symbol cells
T5 construct: aggregates of a mutated version of the FAS1-4 domain of TGFBIp

C-36 fibrils [7] = target: T2, C-36 fibrils; test: Fibril incubation with plasma, quantitative MS/MS of bound proteins; type: binding; conditions: 50:1 w/w plasma protein:fibril
Description: as §1, with “Samples with fibril material (20 μg), plasma (500 μg) or CSF (40 μg) proteins were prepared in 200 μL PBS buffer with 5 mM EDTA.” left out
as §2, §3, §4, §5, §6, §7

αSN fibrils [8] = target: T6, αSN fibrils (Homo sapiens, UniProt P37840); test: Fibril incubation with CSF, quantitative MS/MS of bound proteins; type: binding; parameters: key to Identification status of CSF protein bound: αSN: *: Identified, but not quantified; —: Not identified in any of the samples; conditions: symbol cells
Description: as §1, with “Samples with fibril material (20 μg), plasma (500 μg) or CSF (40 μg) proteins were prepared in 200 μL PBS buffer with 5 mM EDTA.” left out
as §2, §3, §4, §5, §6, §7

αSN fibrils [9] = target: T6, αSN fibrils; test: Fibril incubation with plasma, quantitative MS/MS of bound proteins; type: binding; parameters: key to Identification status of plasma protein bound: αSN: *: Identified, but not quantified; —: Not identified in any of the samples; conditions: for Identification status of plasma protein bound: αSN: symbol cells
Description: as §1, with “Samples with fibril material (20 μg), plasma (500 μg) or CSF (40 μg) proteins were prepared in 200 μL PBS buffer with 5 mM EDTA.” left out
as §2, §3, §4, §5, §6, §7

FAS4-AD aggregates [10] = system: T5, FAS4-AD aggregates; test: as above; type: binding, human; parameters: key to Identification status of plasma protein bound: FAS4-AD: *: Identified, but not quantified; —: Not identified in any of the samples; conditions: for Identification status of plasma protein bound: FAS4-AD: symbol cells
Description: as §1, with “Samples with fibril material (20 μg), plasma (500 μg) or CSF (40 μg) proteins were prepared in 200 μL PBS buffer with 5 mM EDTA.” left out
as §2, §3, §4, §5, §6, §7

Ab2 fibrils [11] = system: T4, Ab2 fibrils; test: Fibril incubation with CSF, quantitative MS/MS of bound proteins; type: binding, human; parameters: key to Identification status of CSF protein bound: Ab2: *: Identified, but not quantified; —: Not identified in any of the samples; conditions: symbol cells
glucagon fibrils [12] = target: T3, glucagon fibrils; test: Fibril incubation with plasma, quantitative MS/MS of bound proteins; type: binding; conditions: 50:1 w/w plasma protein:fibril
Description: as §1, with “Samples with fibril material (20 μg), plasma (500 μg) or CSF (40 μg) proteins were prepared in 200 μL PBS buffer with 5 mM EDTA.” left out
as §2, §3, §4, §5, §6, §7

| Molecule | Relative composition of plasma proteins bound: Ab1 (Ab1 fibrils [1]) | Identification status of CSF protein bound: Ab1 (Ab1 fibrils [2]) | Relative composition of CSF proteins bound: C-36 (C-36 fibrils [3]) | Relative composition of CSF proteins bound: Glucagon (glucagon fibrils [4]) | Relative composition of plasma proteins bound: Ab2 (Ab2 fibrils [5]) | Identification status of CSF protein bound: FAS4-AD (FAS4-AD aggregates [6]) | Relative composition of plasma proteins bound: C-36 (C-36 fibrils [7]) | Identification status of CSF protein bound: αSN (αSN fibrils [8]) | Relative composition of plasma proteins bound: αSN (αSN fibrils [9]; 50:1 w/w plasma protein:fibril) | Relative composition of plasma proteins bound: FAS4-AD (FAS4-AD aggregates [10]; 50:1 w/w plasma protein:fibril) | Identification status of CSF protein bound: Ab2 (Ab2 fibrils [11]) | Relative composition of plasma proteins bound: Glucagon (glucagon fibrils [12]) | Identification status of plasma protein bound: αSN (αSN fibrils [9]) | Identification status of plasma protein bound: FAS4-AD (FAS4-AD aggregates [10]) |
| --- | --- | --- | --- | --- | --- | --- | --- | --- | --- | --- | --- | --- | --- | --- |
| B1 | 1.3 ± 0.1 % of total protein | * | 0.5 ± 0.1 % of total protein | 0.2 ± 0.1 % of total protein | 1.3 ± 0.3 % of total protein | — | 1.4 ± 0.4 % of total protein | — | 0.9 ± 0.3 % of total protein | 3.9 ± 1.6 % of total protein | * | 1.7 ± 0.0 % of total protein |  |  |
| B2 | 0.2 ± 0.0 % of total protein |  |  |  | 0.4 ± 0.1 % of total protein |  | 0.3 ± 0.1 % of total protein |  |  |  |  | 0.1 ± 0.0 % of total protein | * | — |
| B3 | 0.1 ± 0.0 % of total protein |  |  |  | 0.1 ± 0.0 % of total protein |  | 0.3 ± 0.1 % of total protein |  |  |  |  | 2.7 ± 0.2 % of total protein | * | — |
